Experimental data taken from patent publication CN114685654A (GUANGDONG DONGSUNANG PHARMACEUTICAL CO LTD, dated 2022).
Changes are numbered by the printed parent chain. One block for each binder: values may come before it.

Columns and labels:
蛋白A [1] = biological target: T1, 蛋白A; test: sandwich ELISA, antibody coated at 2 μg/mL, protein at 5 and 10 ng/mL, detection with HRP mouse anti-human IgG4 Fc
T1 construct: also called FGF21-Fc融合蛋白
T1 chain: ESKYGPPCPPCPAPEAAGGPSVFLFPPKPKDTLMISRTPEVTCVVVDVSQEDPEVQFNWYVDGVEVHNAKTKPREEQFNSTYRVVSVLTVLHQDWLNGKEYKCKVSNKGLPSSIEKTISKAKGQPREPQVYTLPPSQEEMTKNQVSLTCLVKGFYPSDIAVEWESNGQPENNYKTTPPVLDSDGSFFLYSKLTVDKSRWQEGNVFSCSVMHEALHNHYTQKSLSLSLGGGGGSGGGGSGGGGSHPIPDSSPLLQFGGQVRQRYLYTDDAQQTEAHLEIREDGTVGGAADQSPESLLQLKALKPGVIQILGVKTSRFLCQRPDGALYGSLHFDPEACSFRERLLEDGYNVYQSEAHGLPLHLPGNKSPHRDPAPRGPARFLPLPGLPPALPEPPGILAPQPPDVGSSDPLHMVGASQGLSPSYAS

蛋白B [2] = biological target: T2, 蛋白B; test: sandwich ELISA, antibody coated at 2 μg/mL, detection with HRP mouse anti-human IgG4 Fc
T2 construct: Counter-screen protein; also called FGF21-Fc融合蛋白
T2 chain: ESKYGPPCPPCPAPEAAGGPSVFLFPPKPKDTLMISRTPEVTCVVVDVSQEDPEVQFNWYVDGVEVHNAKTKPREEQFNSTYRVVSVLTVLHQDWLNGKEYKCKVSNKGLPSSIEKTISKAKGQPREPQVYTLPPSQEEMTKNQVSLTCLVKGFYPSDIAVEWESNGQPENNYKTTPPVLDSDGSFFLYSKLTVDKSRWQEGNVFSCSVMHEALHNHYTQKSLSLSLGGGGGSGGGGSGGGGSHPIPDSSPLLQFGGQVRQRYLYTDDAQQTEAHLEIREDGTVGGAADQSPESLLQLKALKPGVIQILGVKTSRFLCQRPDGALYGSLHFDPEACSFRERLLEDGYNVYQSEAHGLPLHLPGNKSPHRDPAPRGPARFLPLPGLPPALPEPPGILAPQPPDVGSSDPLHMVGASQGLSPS

蛋白B [3] = biological target: T2, 蛋白B; test: ELISA, protein coated
蛋白A [4] = biological target: T1, 蛋白A; test: ELISA, protein coated at 0.1, 1, 5 μg/mL, antibody 1 μg/mL
蛋白B [5] = biological target: T2, 蛋白B; test: indirect ELISA, hybridoma supernatant on coated protein
蛋白A [6] = biological target: T1, 蛋白A; test: as above

B1: MM21H (antibody, V domains shown)
VH: QIQLVQSGPELKKTGETVKMSCKASGYTFTNYGMNWVKQAPGKGLKLMGWINTYTGKPTYADDFKGRFAFSLETSASTAYLQINNLKNEDTATYFCATNYYDYDVAYWGQGTLVTVSA
VL: DIVMTQAAFSNPVTLGTSASISCRSSKSLLHSNGITYLYWFLQKPGQSPQVLIYQMSSLASGVPDRFSSSGSGTDFTLRISRVEAEDVGVYYCAQTLELPTFGGGTKLEIK
notes: also called MM21H鼠源单克隆抗体
binding result (蛋白A [1]): binds | binding result (蛋白B [2]): no binding (tested: 5ng/mL、10ng/mL)

B2: MM24T (antibody, mouse IgG1, kappa, V domains shown)
VH: B1 VH with T14P, M20I, I83L, V105I, T115A
VL: DIVMTQAAFSNPVTLGTSASISCRSSKSLLHSNGITYLYWFLQKPGQSPQVLIYQMSNLASGVPDRFSSSGSGTDFTLRISRVEAEDVGVYYCAQTLELPTFGGGTKLEIKR
notes: only the CDRs are; also called MM24T重组抗体; MM24T抗体
binding result (蛋白B [3]): no binding (tested: antibody 1μg/mL; coating 0.1、1、5μg/mL) | binding result (蛋白A [4]): binds

More lines, main results first:

binding result (蛋白A [4]): binds
B3: MM21T (antibody, mouse IgG1, kappa, V domains shown)
VH: B1 VH
VL: B2 VL with N58S
notes: only the CDRs are; also called MM21T重组抗体; MM21T抗体
binding result (蛋白B [3]): no binding (tested: antibody 1μg/mL; coating 0.1、1、5μg/mL)

binding result (蛋白B [5]): no binding | binding result (蛋白A [6]): binds
B4: MM24H (antibody, V domains shown)
VH: B1 VH with T14P, M20I, I83L, V105I, T115A
VL: B1 VL with S58N
notes: also called MM24H鼠源单克隆抗体
